From patent US20220143136A1, “USE OF ANNEXINS IN PREVENTING AND TREATING MUSCLE MEMBRANE INJURY” (NORTHWESTERN UNIVERSITY, priority 2018, published 2022)
“Also recorded” adds a separate entry of the source.

What was measured:
mdx/hLTBP4 myofibers = assay: Laser-induced membrane injury, FM 4-64 dye uptake, dystrophic myofibers; assay type: cell-based, mouse; conditions: 25 μg/ml extracellular recombinant protein vs vehicle control, dystrophic (DMD model) myofibers
Experimental: For recombinant myofibers studies, myofibers were isolated from mdx/hLTBP4 mice as described above. Myofibers were incubated in Ringer's media with or without 25 μg/ml recombinant annexin A6 (5186-A6-050, R&D systems). FM 4-64 ([…]) was added to the myofibers just prior to imaging. Images were acquired and quantitated as described above. FM 4-64 area was measured using FIJI at imaging endpoint from a single slice near the middle of the z-stack. Z-stack step size (0.125 μm) was acquired from cap end to end.
Multiphoton laser injury and imaging. Fibers were subjected to laser-induced damage at room temperature using the Nikon A1R-MP multiphoton microscope. Imaging was performed using a 25×1.1 NA objective directed by the NIS-Elements AR imaging software. Green fluorescence protein (GFP) and FM 4-64 were excited using a 920 nm wavelength laser and emission wavelengths of 575 nm and 629 nm were collected respectively. To induce laser damage on isolated myofibers, a diffraction limited spot (diameter approximately 410 nm) was created on the lateral membrane of the myofiber using a 920 nm wavelength laser at 10-15% laser power for 1 second. […]
Multiphoton laser injury and imaging. […] Green fluorescence protein (GFP) and FM 4-64 were excited using a 920 nm wavelength laser and emission wavelengths of 575 nm and 629 nm were collected respectively. […]

Anxa6^em1(GFP) myofibers = assay: Laser injury of Anxa6em1(GFP) myofibers pretreated with recombinant annexin A6; assay type: cell-based, mouse; conditions: 10-40 μg/ml recombinant protein pretreatment vs control
Experimental: Myofiber isolation. Flexor digitorum brevis (FDB) fibers were isolated with methods that were described previously in (Demonbreun and McNally, 2015; Demonbreun et al., 2016b; DiFranco et al., 2009). Briefly, fibers were dissociated in 0.2% BSA plus collagenase type II (Cat #17101, Thermo Fisher Scientific, Waltham, Mass.) for 60 minutes at 37 degrees in 10% CO2. Fibers were then moved to Ringers solution and placed on MatTek confocal microscopy dishes (Cat #P35G-1.5-14-C, MatTek, Ashland Mass.).
Multiphoton laser injury and imaging. Isolated fibers were subjected to laser-induced damage at room temperature using the Nikon A1R-MP multiphoton microscope. Imaging was performed using a 25×1.1 NA objective directed by the NIS-Elements AR imaging software. Green fluorescence protein (GFP) and FM 4-64 were excited using a 920 nm wavelength laser and emission wavelengths of 575 nm and 629 nm were collected respectively. […] Fluorescence intensity and cap area were measured using Fiji (NIH).
For recombinant protein studies, myofibers were isolated from mice as described above. […] Cap size was assessed from acquired images in FIJI. […] Images were acquired and quantitated as described above. FM 4-64 fluorescence at endpoint was measured using FIJI.

B1: recombinant annexin A6: recombinant human annexin A6 protein with C-terminal HIS tag (5186-A6-050, R&D systems); mouse protein from Northwestern core in one cohort (protein, UniProt P08133 2-673, looked up)
Annexin A6: AKPAQGAKYRGSIHDFPGFDPNQDAEALYTAMKGFGSDKEAILDIITSRSNRQRQEVCQSYKSLYGKDLIADLKYELTGKFERLIVGLMRPPAYCDAKEIKDAISGIGTDEKCLIEILASRTNEQMHQLVAAYKDAYERDLEADIIGDTSGHFQKMLVVLLQGTREEDDVVSEDLVQQDVQDLYEAGELKWGTDEAQFIYILGNRSKQHLRLVFDEYLKTTGKPIEASIRGELSGDFEKLMLAVVKCIRSTPEYFAERLFKAMKGLGTRDNTLIRIMVSRSELDMLDIREIFRTKYEKSLYSMIKNDTSGEYKKTLLKLSGGDDDAAGQFFPEAAQVAYQMWELSAVARVELKGTVRPANDFNPDADAKALRKAMKGLGTDEDTIIDIITHRSNVQRQQIRQTFKSHFGRDLMTDLKSEISGDLARLILGLMMPPAHYDAKQLKKAMEGAGTDEKALIEILATRTNAEIRAINEAYKEDYHKSLEDALSSDTSGHFRRILISLATGHREEGGENLDQAREDAQVAAEILEIADTPSGDKTSLETRFMTILCTRSYPHLRRVFQEFIKMTNYDVEHTIKKEMSGDVRDAFVAIVQSVKNKPLFFADKLYKSMKGAGTDEKTLTRIMVSRSEIDLLNIRREFIEKYDKSLHQAIEGDTSGDFLKALLALCGGED
modifications: C-terminal His tag
notes: recombinant human annexin A6 protein with C-terminal HIS tag (5186-A6-050, R&D systems); mouse protein from Northwestern core in one cohort
mdx/hLTBP4 myofibers
  FM 4-64 fluorescence / dye uptake after laser injury: reduced
mdx/hLTBP4 myofibers; listed as rANXA6
  FM 4-64 fluorescence / dye uptake after laser injury: significantly smaller; also recorded: significantly less
Anxa6^em1(GFP) myofibers
  FM 4-64 dye uptake: reduction
  annexin A6GFP repair cap size: smaller; also recorded: reduced
